Data published in publication PMC8953949, “Identifying Function Determining Residues in Neuroimmune Semaphorin 4A” (International Journal of Molecular Sciences, 2022).
Numbering of substitutions follows the chain as printed. Names may count otherwise. One block for each molecule: values may come before it.

How the values were obtained:
[1] = molecular target: recombinant human Plexin B1 with a 6X His tag at C-terminus (human) (UniProt O43157); experiment: ELISA; direct ligand-receptor (LRA) ELISA; Plexin B1 (8-10 ug/mL) immobilised on Immulon 2 plates overnight, Sema4 in solution in varying doses from 2 ug/mL; detection by HRP-labelled Abs to tags; fit 'One site-specific binding with Hill slope'
[2] = molecular target: NRP1 (UniProt O14786); experiment: ELISA; LRA ELISA of Sema4A and NRP1 (Supplemental Figure S2)
[3] = molecular target: Plexin B1 (Homo sapiens) (UniProt O43157); experiment: cell-based ELISA; conditions: cited from earlier work
[4] = molecular target: Plexin D1 (UniProt Q9Y4D7); experiment: SPR; conditions: cited from earlier work
[5] = molecular target: Plexin B1 (Homo sapiens) (UniProt O43157); experiment: SPR; conditions: cited from earlier work
[6] = molecular target: T1, recombinant human Plexin B1 with a 6X His tag at C-terminus (human, UniProt O43157 20-1490); experiment: ELISA; direct LRA ELISA; Plexin B1-His (10 ug/mL) captured on HIS-Select nickel-coated microplates in Tris buffer overnight, Sema4 in solution in varying doses from 2 ug/mL; conditions: both partners purified
T1 construct: Plexin B1, human; Only the molecular weight (66 kDa) is printed; it must be a fragment of the extracellular part, limits unknown; also called rhPlexin B1; rhPlexin B1-His; source: bought: GenScript; not shown: His6, C-terminal, kept
T1 sequence (looked up): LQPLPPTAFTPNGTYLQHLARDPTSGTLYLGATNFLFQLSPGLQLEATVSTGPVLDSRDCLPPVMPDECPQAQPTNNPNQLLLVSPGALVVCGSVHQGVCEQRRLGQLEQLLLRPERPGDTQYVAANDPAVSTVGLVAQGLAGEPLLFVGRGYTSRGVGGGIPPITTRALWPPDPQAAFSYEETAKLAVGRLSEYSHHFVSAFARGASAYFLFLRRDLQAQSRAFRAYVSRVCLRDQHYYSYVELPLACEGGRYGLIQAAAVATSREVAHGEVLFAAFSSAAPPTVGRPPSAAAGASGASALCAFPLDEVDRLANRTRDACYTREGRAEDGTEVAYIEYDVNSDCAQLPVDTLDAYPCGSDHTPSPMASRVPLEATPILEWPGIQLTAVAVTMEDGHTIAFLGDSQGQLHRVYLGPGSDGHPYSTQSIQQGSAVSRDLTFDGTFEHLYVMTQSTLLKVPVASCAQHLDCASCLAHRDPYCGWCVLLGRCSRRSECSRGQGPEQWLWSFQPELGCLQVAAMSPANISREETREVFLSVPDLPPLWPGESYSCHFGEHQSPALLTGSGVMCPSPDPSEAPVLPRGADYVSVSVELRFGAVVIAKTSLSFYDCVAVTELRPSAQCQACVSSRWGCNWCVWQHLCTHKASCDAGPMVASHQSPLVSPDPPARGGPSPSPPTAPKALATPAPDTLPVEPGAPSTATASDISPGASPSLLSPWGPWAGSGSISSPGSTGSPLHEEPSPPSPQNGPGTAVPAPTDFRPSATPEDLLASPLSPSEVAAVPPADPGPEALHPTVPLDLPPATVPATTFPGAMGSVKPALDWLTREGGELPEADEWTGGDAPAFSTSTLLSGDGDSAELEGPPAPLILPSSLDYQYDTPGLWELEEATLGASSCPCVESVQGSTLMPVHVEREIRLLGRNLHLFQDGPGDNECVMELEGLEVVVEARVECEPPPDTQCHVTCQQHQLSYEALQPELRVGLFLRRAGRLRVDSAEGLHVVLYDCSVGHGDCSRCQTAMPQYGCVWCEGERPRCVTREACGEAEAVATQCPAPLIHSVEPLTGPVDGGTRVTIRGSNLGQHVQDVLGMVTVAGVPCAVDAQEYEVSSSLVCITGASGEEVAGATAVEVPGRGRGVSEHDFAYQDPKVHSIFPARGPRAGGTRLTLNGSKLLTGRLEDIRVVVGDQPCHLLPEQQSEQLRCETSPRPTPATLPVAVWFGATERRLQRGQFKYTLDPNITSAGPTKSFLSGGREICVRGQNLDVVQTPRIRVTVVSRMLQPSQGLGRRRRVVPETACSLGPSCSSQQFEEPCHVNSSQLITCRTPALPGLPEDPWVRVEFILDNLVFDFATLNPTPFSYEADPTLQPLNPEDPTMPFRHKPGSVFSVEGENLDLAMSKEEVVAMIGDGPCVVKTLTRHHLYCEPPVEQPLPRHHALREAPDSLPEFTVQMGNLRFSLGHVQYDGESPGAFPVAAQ

[7] = molecular target: T1, recombinant human Plexin B1 with a 6X …; experiment: ELISA; reverse LRA ELISA; Sema4 (2 ug/mL) coated on Immulon 2 plates overnight at 4 C in 0.1 M sodium carbonate-bicarbonate buffer, rhPlexin B1 in solution in varying doses from 10 ug/mL; conditions: both partners purified
[8] = molecular target: soluble recombinant human Sema4A (GST- or Fc-tagged, as used in Figures 2 and 3) (human) (UniProt Q9H3S1); experiment: as above

Sequence of Plexin D1 (Q9Y4D7 47-1271): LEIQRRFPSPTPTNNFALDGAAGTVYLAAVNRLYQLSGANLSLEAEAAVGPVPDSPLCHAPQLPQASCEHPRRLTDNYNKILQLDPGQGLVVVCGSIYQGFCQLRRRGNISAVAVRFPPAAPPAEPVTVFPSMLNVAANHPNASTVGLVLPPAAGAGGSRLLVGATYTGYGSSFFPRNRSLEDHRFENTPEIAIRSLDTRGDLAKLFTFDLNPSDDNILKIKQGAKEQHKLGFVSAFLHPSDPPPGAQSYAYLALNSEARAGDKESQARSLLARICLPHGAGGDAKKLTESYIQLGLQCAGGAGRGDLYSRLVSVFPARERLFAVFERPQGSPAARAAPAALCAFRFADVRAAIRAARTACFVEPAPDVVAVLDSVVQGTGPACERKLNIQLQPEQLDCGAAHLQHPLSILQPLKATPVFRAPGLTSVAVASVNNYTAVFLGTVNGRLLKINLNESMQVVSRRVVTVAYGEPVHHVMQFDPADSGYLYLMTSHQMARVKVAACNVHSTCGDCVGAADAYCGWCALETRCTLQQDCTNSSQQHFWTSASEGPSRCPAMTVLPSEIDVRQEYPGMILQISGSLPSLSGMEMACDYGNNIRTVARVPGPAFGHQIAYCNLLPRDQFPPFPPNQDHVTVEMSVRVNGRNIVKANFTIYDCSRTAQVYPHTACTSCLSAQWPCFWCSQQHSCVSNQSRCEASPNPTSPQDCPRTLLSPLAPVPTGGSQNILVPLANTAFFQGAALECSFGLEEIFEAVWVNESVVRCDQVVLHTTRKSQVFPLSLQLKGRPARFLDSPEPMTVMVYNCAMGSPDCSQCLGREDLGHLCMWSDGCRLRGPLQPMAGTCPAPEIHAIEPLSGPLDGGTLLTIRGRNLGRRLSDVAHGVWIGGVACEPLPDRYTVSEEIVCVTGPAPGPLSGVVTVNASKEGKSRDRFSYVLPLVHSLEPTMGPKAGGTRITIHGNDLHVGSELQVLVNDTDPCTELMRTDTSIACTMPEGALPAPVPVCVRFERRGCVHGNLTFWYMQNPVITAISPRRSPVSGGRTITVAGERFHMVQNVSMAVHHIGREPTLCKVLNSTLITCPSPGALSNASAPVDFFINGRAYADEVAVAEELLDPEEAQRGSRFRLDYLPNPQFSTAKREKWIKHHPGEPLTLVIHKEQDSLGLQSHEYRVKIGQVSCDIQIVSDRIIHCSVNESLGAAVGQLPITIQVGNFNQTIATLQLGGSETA
Sequence of NRP1 (O14786 22-856): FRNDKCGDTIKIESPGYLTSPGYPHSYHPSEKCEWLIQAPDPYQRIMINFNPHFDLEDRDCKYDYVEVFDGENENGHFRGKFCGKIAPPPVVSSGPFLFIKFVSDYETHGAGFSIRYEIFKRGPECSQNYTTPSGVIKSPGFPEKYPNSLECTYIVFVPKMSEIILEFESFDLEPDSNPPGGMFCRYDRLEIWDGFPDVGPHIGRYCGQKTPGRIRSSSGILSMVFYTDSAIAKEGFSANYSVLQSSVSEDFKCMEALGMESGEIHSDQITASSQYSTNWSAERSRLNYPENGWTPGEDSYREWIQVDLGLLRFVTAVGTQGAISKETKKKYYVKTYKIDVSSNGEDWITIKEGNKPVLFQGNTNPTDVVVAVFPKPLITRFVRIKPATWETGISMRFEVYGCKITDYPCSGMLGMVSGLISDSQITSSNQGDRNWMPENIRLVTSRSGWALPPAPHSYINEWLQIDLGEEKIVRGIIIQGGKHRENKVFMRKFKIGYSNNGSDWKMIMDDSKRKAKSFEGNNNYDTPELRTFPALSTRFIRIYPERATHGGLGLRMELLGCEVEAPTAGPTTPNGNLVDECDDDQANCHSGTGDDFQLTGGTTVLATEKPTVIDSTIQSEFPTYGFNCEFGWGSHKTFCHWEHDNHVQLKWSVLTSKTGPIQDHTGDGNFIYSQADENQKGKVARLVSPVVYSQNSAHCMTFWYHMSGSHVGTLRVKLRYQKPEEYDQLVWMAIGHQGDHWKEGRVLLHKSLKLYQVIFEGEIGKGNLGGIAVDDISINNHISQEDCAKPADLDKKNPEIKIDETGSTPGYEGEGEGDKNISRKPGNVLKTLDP

Molecule: soluble recombinant human Sema4A (GST- or Fc-tagged, as used in Figures 2 and 3) (from UniProt Q9H3S1 33-683) (ligand)
- Kd [1]: 0.0199 µM
- Kd [2]: 0.0283 µM

Molecule: Sema4D (from UniProt Q92854)
- Kd [3]: 0.0009 µM

Molecule: Sema4A (from UniProt Q9H3S1)
- Kd [4]: 0.00872 µM

Molecule: Sema4D Sema domain (from UniProt Q92854)
- Kd [5]: 5500 µM

- Kd [6]: 0.00255 µM
- Kd [7]: 0.0025 µM
B1: WT rhSema4A-Fc (GenScript) (Fc fusion, human, UniProt Q9H3S1 33-683, looked up)
chain: GGGQGPMPRVRYYAGDERRALSFFHQKGLQDFDTLLLSGDGNTLYVGAREAILALDIQDPGVPRLKNMIPWPASDRKKSECAFKKKSNETQCFNFIRVLVSYNVTHLYTCGTFAFSPACTFIELQDSYLLPISEDKVMEGKGQSPFDPAHKHTAVLVDGMLYSGTMNNFLGSEPILMRTLGSQPVLKTDNFLRWLHHDASFVAAIPSTQVVYFFFEETASEFDFFERLHTSRVARVCKNDVGGEKLLQKKWTTFLKAQLLCTQPGQLPFNVIRHAVLLPADSPTAPHIYAVFTSQWQVGGTRSSAVCAFSLLDIERVFKGKYKELNKETSRWTTYRGPETNPRPGSCSVGPSSDKALTFMKDHFLMDEQVVGTPLLVKSGVEYTRLAVETAQGLDGHSHLVMYLGTTTGSLHKAVVSGDSSAHLVEEIQLFPDPEPVRNLQLAPTQGAVFVGFSGGVWRVPRANCSVYESCVDCVLARDPHCAWDPESRTCCLLSAPNLNSWKQDMERGNPEWACASGPMSRSLRPQSRPQIIKEVLAVPNSILELPCPHLSALASYYWSHGPAAVPEASSTVYNGSLLLIVQDGVGGLYQCWATENGFSYPVISYWVDSQDQTLALDPELAGIPREHVKVPLTRVSGGAALAAQQSYWPH
notes: Semaphorin 4A, human; also called WT Sema4A; WT Sema4A-Fc; source: bought: GenScript

- Kd [6]: 0.00282 µM
- Kd [7]: 0.0035 µM
B2: F223A rhSema4A-Fc (Fc fusion, human, UniProt Q9H3S1 33-683, looked up)
chain: B1 chain with F191A
notes: Semaphorin 4A, human; as the WT Sema4A-Fc of GenScript with F223A; Similar molecular size as the WT Sema4A-Fc protein prepared similarly; also called Sema4A-F223A; Mu F223A Sema4A; source: prepared by GenScript

- Kd [6]: 0.00419 µM
- Kd [7]: 0.0017 µM
B3: M198A rhSema4A-Fc (Fc fusion, human, UniProt Q9H3S1 33-683, looked up)
chain: B1 chain with M166A
notes: Semaphorin 4A, human; as the WT Sema4A-Fc of GenScript with M198A; Similar molecular size as the WT Sema4A-Fc protein prepared similarly; also called Sema4A-M198A; Mu M198A Sema4A; source: prepared by GenScript

- Kd [8]: 0.0354 µM
B4: recombinant human Plexin B1 with a 6X His tag at C-terminus (receptor)
chain: T1 sequence (looked up)
